Assay results: PMC7211764 (Biochemistry, 2019)

Target: the molecule itself
Assay: SEC

B1: A3A H29R (enzyme)
chain: not shown
  stoichiometry N: 2
